Measurements taken from PMC11193732 (Scientific Reports, 2024).

Assays:
[1] = target: T1, spike protein (S1 + S2) of SARS-CoV-2 WT (Wuhan strain) (SARS-CoV-2, Wuhan (WT), UniProt P0DTC2); test: ELISA; wells coated with 1 × 10^5 heat-inactivated virus in PBS; 5G2 mAb added; anti-mouse IgG-F(ab')2-HRP, A450; conditions: one partner purified
T1 construct: uncleaved S1 + S2 spike protein of SARS-CoV-2 WT (Wuhan strain), as made by the virus; also called original Wuhan strain; the coronavirus

[2] = target: S2 subunit of the SARS-CoV-2 WT spike protein in infected Vero cells (SARS-CoV-2, Wuhan (WT), UniProt P0DTC2); test: western blot; conditions: one partner purified
[3] = target: T2, 6xHis-tagged recombinant SARS-CoV-2 (2019-nCoV) spike protein S1 + S2 extracellular domain (Severe acute respiratory syndrome …, UniProt P0DTC2); test: ELISA; […] (40 ng/mL, 50 μL) […]; conditions: one partner purified
T2 construct: SARS-CoV-2 (2019-nCoV) spike protein, S1 + S2 extracellular domain; lacks the cytoplasmic region; retains the S1/S2 cleavage regions; No catalogue number or limits are printed; also called recombinant S1 + S2; recombinant spike protein

[4] = target: T3, SARS-CoV-2 spike 1099-1112 peptide (GTH peptide) (Severe acute respiratory syndrome …); test: SPR; conditions: both partners purified
T3 construct: SARS-CoV-2 spike protein, residues 1099-1112, between HR1 and HR2 of the S2 domain
T3 chain: GTHWFVTQRNFYEP

[5] = target: T4, 6xHis-tagged recombinant SARS-CoV-2 (2019-nCoV) spike S2 extracellular domain (SARS-CoV-2, Wuhan (2019-nCoV), UniProt P0DTC2); test: western blot; recombinant spike proteins separated by SDS-PAGE on nitrocellulose; 5G2 mAb 0.2 μg/mL, RT 1 h; anti-mouse IgG-F(ab')2-HRP; conditions: both partners purified
T4 construct: SARS-CoV-2 (2019-nCoV) spike protein, S2 extracellular domain; lacks the cytoplasmic region; No catalogue number or limits are printed; also called recombinant S2; S2 subunit of the recombinant spike protein

[6] = target: T1, spike protein (S1 + S2) of SARS-CoV-2 …; test: western blot; conditions: one partner purified
[7] = target: T2, 6xHis-tagged recombinant SARS-CoV-2 …; test: western blot; recombinant spike proteins separated by SDS-PAGE on nitrocellulose; MBP-sc5G2-6xHis 0.8 μg/mL, RT 1 h; anti-MBP antibody and anti-mouse IgG-F(ab')2-HRP; conditions: both partners purified
[8] = target: T4, 6xHis-tagged recombinant SARS-CoV-2 …; test: as above; conditions: both partners purified
[9] = target: T2, 6xHis-tagged recombinant SARS-CoV-2 …; test: western blot; conditions: one partner purified
[10] = target: T4, 6xHis-tagged recombinant SARS-CoV-2 …; test: western blot; conditions: one partner purified
[11] = target: T5, recombinant S2 subunit of the spike protein without 6xHis (SARS-CoV-2, Wuhan (WT), UniProt P0DTC2); test: western blot
T5 construct: also called r-S2; recombinant S2 without 6xHis

B1: 5G2 monoclonal antibody (antibody, V domains shown)
VH: QIQLVQSGPELKKPGATVKISCKASGYTFTNYGMHWLKQTPGKVLKWMGLINTYTGEPKYADDFKGRFAFSLETSASTAYLQINNLRSEDTATYFCARKGLGLRPPMDSWGQGTSVTVSS
VL: QIVLSQSPAILSASPGEKVTMTCRASSSVNYMHWCQQKPGSSPKPLIHGTSNLASGVPGRFSGSGSGTSYSLTISRVEAEDAATYYCHQWNSYPLTFGAGTRLEL
notes: also called 5G2 mAb; mAb 5G2
- binding result [1]: binds
- binding result [2]: binds
- binding result [3]: binds
- Kd [4]: 0.11 nM
- binding result [5]: binds

B2: MBP-sc5G2-6xHis produced by HEK293FT cells (scFv, V domains shown)
VH: B1 VH
VL: B1 VL
notes: as the heavy chain variable region of m1; as the light chain variable region of m1; The MBP cDNA came from the pMAL-p2 vector; not shown: MBP, N-terminal, kept; 6xHis, C-terminal, kept
- binding result [6]: binds
- binding result [7]: binds
- binding result [8]: binds

B3: recombinant 5G2 (cloned heavy and light chains fused to mouse IgG constant γ1 and κ chains) (antibody, V domains shown)
VH: B1 VH
VL: B1 VL
notes: as the heavy chain variable region of m1; mouse IgG constant γ1 chain; as the light chain variable region of m1; mouse immunoglobulin constant κ chain; Mouse IgG1 kappa; also called recombinant heavy and light chains of 5G2; 293FT + cDNA
- binding result [9]: binds
- binding result [10]: binds

B4: sc5G2-6xHis produced by E. coli (refolded) (scFv, V domains shown)
VH: B1 VH
VL: B1 VL
notes: as the heavy chain variable region of m1; as the light chain variable region of m1; also called MBP-free sc5G2
- binding result [11]: binds
- binding result [6]: binds

B5: MBP-sc5G2-6xHis produced by E. coli (refolded) (scFv, V domains shown)
VH: B1 VH
VL: B1 VL
notes: as the heavy chain variable region of m1; as the light chain variable region of m1; Same cDNA as m3, in pET22b; not shown: MBP, N-terminal, kept; 6xHis, C-terminal, kept
- binding result [6]: binds
- binding result [7]: binds
- binding result [8]: binds
